Measurements published in US11760795B2, “Monoclonal antibodies to growth and differentiation factor 15 (GDF-15), and uses thereof for treating cancer cachexia and cancer” (JULIUS-MAXIMILIANS-UNIVERSITÄT WÜRZBURG, priority 2014, dated 2023).

Columns and labels:
[1] = system: 13 mer linear peptides derived from GDF-15; experiment: Epitope mapping on peptide array of 13 mer linear peptides derived from GDF-15; assay type: binding, human; conditions: antibody dilution 1:100, overnight at 4° C.
Experimental: Epitope Mapping: Monoclonal mouse antibody GDF-15 against 13 mer linear peptides derived from GDF-15
The protein sequence was translated into 13 mer peptides with a shift of one amino acid. The C- and N-termini were elongated by a neutral GSGS linker to avoid truncated peptides (bold letters).
Primary sample: Monoclonal mouse antibody GDF-15 (1 μg/μl):
Staining in incubation buffer for 16 h at 4° C. at a dilution of 1:100 and slight shaking at 500 rpm
Secondary antibody: Goat anti-mouse IgG (H+L) IRDye680, staining in incubation buffer with a dilution of 1:5000 for 30 min at room temperature (RT)
After pre-swelling for 10 min in standard buffer, the peptide microarray was incubated overnight at 4° C. with monoclonal mouse antibody GDF-15 at a dilution of 1:100. Repeated washing in standard buffer (2×1 min) was followed by incubation for 30 min with the secondary antibody at a dilution of 1:5000 at room temperature. After 2×10 sec. washing in standard buffer and short rinsing with dist. water, the PEPperCHIP® was dried in a stream of air. Read-out was done with Odyssey® Imaging System at a resolution of 21 μm and green/red intensities of 7/7 before and after staining of control peptides by anti-HA and anti-FLAG(M2) antibodies.

[2] = system: GDF-15 mediated JNK1/2-phosphorylation in immune cells; experiment: JNK1/2 phosphorylation in immune cells (Western Blot); assay type: cell-based; conditions: 2 μg antibody, 10 ng/ml GDF-15, 5 minute preincubation
Experimental: FIG. 3: JNK1/2 Phosphorylation in Immune Cells. In order to quantify the Western Blot, the ratio of phosphorylated JNK1/2 to the total amount of JNK was calculated and normalized to the untreated control.
c) Treatment of immune cells with recombinant. GDF-15 led to the phosphorylation of JNK, a kinase, which is activated either by cytokines or by stress. Antagonization of 10 ng/ml GDF-15 with 2 μg mAb-B1-23 (5 minute preincubation at 37°) blocked the GDF-15 mediated JNK1/2-phosphorylation (FIG. 3).

[3] = system: GDF-15 mediated AKT-phosphorylation in ovarian cancer cell line SK-OV-3; experiment: Akt phosphorylation in SK-OV-3 cells (Western Blot); assay type: cell-based; conditions: 2 μg antibody preincubated 5 minutes with 10 ng/ml GDF-15 at 37° C.
Experimental: FIG. 2: Akt Phosphorylation in the Ovarian Carcinoma Cell Line SK-OV-3. In order to quantify the Western Blot for the ovarian carcinoma cell line SK-OV-3, the ratio of phosphorylated Akt to the total amount of Akt was calculated and normalized to the untreated control.
b) The treatment of the ovarian cancer cell line SK-OV-3 with recombinant GDF-15 led to the phosphorylation of AKT. AKT is a molecule, which is part of the PI3K-pathway and contributes to the activation and proliferation of cells. In this experiment SK-OV-3 cells were treated with 10 ng/ml recombinant GDF-15 for 10 min at 37° C., 5% CO2. 5 minutes preincubation of 2 μg mAb-B1-23 with 10 ng/ml GDF-15 at 37° C. blocked the GDF-15 mediated AKT-phosphorylation (FIG. 2).

[4] = system: GDF-15 mediated downregulation of NKG2D on NK cells; experiment: NKG2D surface expression on NK cells after GDF-15 treatment (flow cytometry); assay type: cell-based; conditions: 72 hours incubation
Experimental: FIG. 1: NKG2D Expression on NK Cells after Treatment with or without GDF-15. The cell surface expression of NKG2D was determined on NK cells after treatment with the indicated cytokines in the presence or absence of the anti-GDF-15 antibody mAb B1-23.
a) The NKG2D (Natural Killer Group 2D) receptor, which is expressed on NK cells and CD8+ T cells, is known to play an important role in the immune surveillance against tumors. Transformed as well as viral infected cells express ligands, which bind to the NKG2D receptor, thereby activating the cytotoxic effector functions of the described immune cells. In that way transformed cells can be detected and eliminated by the immune system.
After 72 hours incubation the immune cells were stained with the following FACS-antibodies: anti CD3, anti CD56, anti-NKG2D. Using this antibody combination, the experiment focused on NK cells and their NKG2D surface expression. The low NKG2D level on immune cells led to an impaired tumor/target cell lysis. The GDF-15 mediated downregulation of NKG2D was prevented by mAb B1-23.

B1: mAb-B1-23: murine IgG2a (kappa) monoclonal anti-human GDF-15 antibody produced by hybridoma cell line B1-23, DSM ACC3142 (antibody, V domains shown)
VH: QVKLQQSGPGILQSSQTLSLTCSFSGFSLSTSGMGVSWIRQPSGKGLEWLAHIYWDDDKRYNPTLKSRLTISKDPSRNQVFLKITSVDTADTATYYCARSSYGAMDYWGQGTSVTVSS
VL: DIVLTQSPKFMSTSVGDRVSVTCKASQNVGTNVAWFLQKPGQSPKALIYSASYRYSGVPDRFTGSGSGTDFTLTISNVQSEDLAEYFCQQYNNFPYTFGGGTKLEIKRTVA
interaction with linear 13 mer peptides derived from GDF-15 [1]: none of the linear 13 mer peptides derived from GDF-15 interacted | GDF-15 mediated JNK1/2-phosphorylation [2]: blocked | GDF-15 mediated AKT-phosphorylation [3]: blocked | GDF-15 mediated downregulation of NKG2D [4]: prevented
